From patent publication US7691567B2, “Methods and compositions relating to fortilin, an anti-apoptotic molecule, and modulators of fortilin” (Board of Regents, the University of Texas System, priority 2000, dated 2010) come the findings set out here.

In one data set the target is Bax (Homo sapiens, UniProt Q07812). The data set can be described thus: In vitro pull-down assay of Fortilin-HA with Bax. Particulars: in vitro translated proteins, anti-HA pull-down. In kind it is binding.
A further data set deals with caspase 3-like activity. The data set is described as follows: Assay of caspase 3-like activity in U2OS stable transfectants (Z-DEVD-AFC). In kind it is cell-based. As to the method:
Assay of caspase 3-like activity. Approximately 2×10^6 U2OS stable transfectants, either expressing Fortilin (U2OS.F) or harboring empty expression vector (U2OS.E), both of which have been characterized above, were challenged either with dimethyl sulfoxide (DMSO) (vehicle) or with etoposide at a final concentration of 10 μg/mL for 48 hours. Caspase 3-like activity was then determined as previously described (Mannick et al., 1999). In brief, cytosolic proteins were extracted in hypotonic cell lysis buffer (25 mM HEPES, pH 7.5, 5 mM MgCl2, 5 mM EDTA, 5 mM dithiothreitol, 0.05% phenylmethylsulfonyl fluoride [PMSF]; all from Sigma) by three cycles of freezing and thawing. The protein concentration of samples was determined by using a BioRad Bradford protein assay kit (BioRad). Ten micrograms of cytosolic extracts were added to caspase assay buffer (312.5 mM HEPES, pH 7.5, 31.25% sucrose, 0.3125% CHAPS) with Z-DEVD-AFC as substrates (CalBiochem, San Diego, Calif.). Release of 7-amido-4-(trifluoromethyl)coumarin (AFC) was quantified, after 2 hours of incubation at 37° C. (or, in the case of time course experiment, every 10 minutes), using a Fluoroskan system (Thermo-Labsystems, Helsinki, Finland) set to an excitation value of 355 nm and emission value of 525 nm. The results were expressed as relative fluorescence unit (R.F.U.) per microgram of protein.

The test system of another data set is U2OS cells. The following applies: for cytotoxicity index relative to control transfectants: U2OS stable transfectants of HA-tagged Fortilin or deletion mutants, 5 μg/mL etoposide 48 hours.
The next data set concerns the target p53 (Homo sapiens, UniProt P04637). The data set is described as follows: Coimmunoprecipitation of fortilin and p53 from U2OS cell lysates. Further details: endogenous in cells; host or cells: U2OS. In kind it is binding. The protocol: As in example 2, studies were initiated to determine whether p53 and Fortilin specifically interact in U2OS cells. Six million U2OS cells stably expressing either HA-fortilin or HA-only were suspended in lysis-binding-wash buffer (50 mM HEPES, pH7.5, 70 mM KCl, 0.5 mM ATP, 5 mM MgSO4, 1 mM DTT, 0.1% NP40, 2 mg/mL BSA, Aprotinin, PMSF, MG132 and protease inhibitor cocktail). Cells were then mechanically disrupted by nitrogen excavitation method. Cleared total cell lysates were incubated with […] anti-HA antibody (3F10, Roche), followed by the incubation with anti-mouse IgG conjugated to magnetic beads (Dynal USA) and extensive wash with lysis-binding-wash buffer.
Further experiments were conducted to determine in vivo immunoprecipitation of fortilin by p53. Twenty million U2OS cells were suspended in lysis-binding buffer (50 mM HEPES, pH7.5, 70 mM KCl, 0.5 mM ATP, 5 mM MgSO4, 1 mM DTT, 0.001% NP40, 2 mg/mL BSA, Aprotinin, PMSF, MG132 and protease inhibitor cocktail). Cells were then mechanically disrupted by nitrogen excavitation method. Cleared total cell lysates were divided equally into two eppendorf tubes. To the first tube, anti-p53 antibody (DO-1, […]) was added, while […] control monoclonal antibody was added to the second tube. After incubation, formed complexes were precipitated by goat anti-mouse IgG conjugated to magnetic beads (Dynal USA), followed by extensive wash. […]

A further data set has as its target MCL1 (Homo sapiens, UniProt Q07820). The data set can be described thus: In vivo coimmunoprecipitation assay in U2OS stable transfectants of Fortilin and mutants. The following applies: anti-HA immunoprecipitation.

Entries after “also recorded” stand apart in the source; their conditions may differ. Read-outs that look alike come from different tables or passages of the source.

Bax, sequence (Q07812 whole entry, species assumed): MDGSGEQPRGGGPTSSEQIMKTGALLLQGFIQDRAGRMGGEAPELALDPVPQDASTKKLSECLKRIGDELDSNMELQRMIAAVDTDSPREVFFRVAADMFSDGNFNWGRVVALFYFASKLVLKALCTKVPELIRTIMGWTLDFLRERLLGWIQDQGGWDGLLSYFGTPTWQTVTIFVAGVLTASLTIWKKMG
p53, sequence (P04637 whole entry, species assumed): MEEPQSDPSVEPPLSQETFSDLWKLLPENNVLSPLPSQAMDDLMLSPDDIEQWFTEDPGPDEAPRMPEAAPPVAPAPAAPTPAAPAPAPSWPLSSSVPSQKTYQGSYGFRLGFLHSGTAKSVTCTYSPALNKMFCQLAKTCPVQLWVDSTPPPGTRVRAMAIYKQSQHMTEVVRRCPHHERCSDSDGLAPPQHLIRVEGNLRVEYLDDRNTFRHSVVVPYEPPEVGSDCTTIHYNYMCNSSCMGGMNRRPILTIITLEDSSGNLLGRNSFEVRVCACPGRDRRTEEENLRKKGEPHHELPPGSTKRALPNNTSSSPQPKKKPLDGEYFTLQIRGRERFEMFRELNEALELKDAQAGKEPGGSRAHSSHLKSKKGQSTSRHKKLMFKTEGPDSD
MCL1, sequence (Q07820 whole entry): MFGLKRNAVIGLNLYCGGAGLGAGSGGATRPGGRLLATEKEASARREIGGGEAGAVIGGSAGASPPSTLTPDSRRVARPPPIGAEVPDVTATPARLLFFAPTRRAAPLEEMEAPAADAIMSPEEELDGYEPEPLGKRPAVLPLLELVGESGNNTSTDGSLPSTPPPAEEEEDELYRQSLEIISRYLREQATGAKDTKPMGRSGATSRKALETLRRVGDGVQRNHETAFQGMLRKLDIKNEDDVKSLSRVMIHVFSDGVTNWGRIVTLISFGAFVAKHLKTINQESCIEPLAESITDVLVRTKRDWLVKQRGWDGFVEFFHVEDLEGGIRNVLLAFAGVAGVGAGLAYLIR
Text for MCL1: In vivo coimmunoprecipitation assay. COS-7 cells (2.5×10^6) were cotransfected with pcDNA3-Fortilin-HA or pcDNA3 and with FLAG-MCL1/pFLAG-CMV or pFLAG-CMV vectors using FuGENE6 (Roche Molecular Biochemicals), according to the manufacturer's instructions. […] Formed complexes were precipitated by sheep anti-rat antibodies conjugated to Dynabead™ (Dynal USA); washed with Buffers A and B; eluted into SDS gel loading buffer; and subjected to SDS-PAGE, Western blot transfer and immuodetection with anti-HA (16B12; Covance, Richmond, Calif.) and anti-FLAG (M2; Sigma) antibodies. […] Cells were harvested by scraping, washed with chilled PBS, suspended in Buffer C (Buffer A supplemented with 0.02% NP-40), and lysed by a nitrogen cavitation method (PARR Instrument Co). […] Formed complexes were precipitated by sheep anti-rat antibodies conjugated to Dynabeads™ (Dynal USA); washed with Buffers C; eluted into SDS gel loading buffer; and subjected to SDS-PAGE, Western blot transfer and immuodetection with anti-HA (16B12; Covance, Richmond, Calif.) and anti-MCL1 (Santa Cruz Biotechnology) antibodies.
Text for U2OS cells: Generation and characterization of U2OS cells stably expressing Fortilin. U2OS cells were transfected with empty pcDNA6, a mammalian expression vector containing a blasticidine resistance gene (Invitrogen, Carlsbad, Calif.), or with pcDNA6 vector encoding wild-type Fortilin, by using FuGENE6 (Roche Molecular Biochemicals) according to the manufacturer's instructions. Transfected cells were selected for approximately 3 weeks and characterized by Western blot analysis. For the cytotoxicity assay, U2OS cells stably expressing wild-type Fortilin (U2OS.F) and U2OS cells stably harboring empty pcDNA6 (U2OS.E) were seeded in a 96 well plate in quadruplicate. For the investigation of dose response, cells were challenged with various concentrations of etoposide (0-20 μg/mL) for 48 hours. For the time course study, cells were challenged with 5 μg/mL of etoposide and harvested after various incubation periods (0-96 hours). In both cases, the cell media were assayed for the lactate dehydrogenase (LDH) activity released from the cytosol of damaged cells, using a cytotoxicity detection kit (Roche Molecular Biochemicals) according to the manufacturer's instructions. The cytotoxicity index was calculated as follows: (LDH activity in the media−background LDH activity)÷(LDH activity in the medium of cells lysed by 1% Triton X-100−background LDH activity)×100.
Cell death assay. U2OS cells stably expressing Fortilin or its mutants were seeded in 96-well plates in triplicate. Cells were then challenged with 5 μg/mL of etoposide (Sigma) for 48 hours. Then the cell media were assayed for the lactate dehydrogenase (LDH) activity released from the cytosol of damaged cells, using a Cytotoxicity Detection Kit (Roche Molecular Biochemicals), according to the manufacturer's instructions. The cytotoxicity index was calculated as follows: (LDH activity in the media−background LDH activity)/(LDH activity in the medium of the cells lysed by 1% Triton X-100−background LDH activity)×100.
Statistical analysis. For analysis of the statistical significance of differences in cytotoxicity indices among cells stably transfected with Fortilin, its mutants or control plasmids, Student's t-test was performed using a commercial software (Minitab Inc., State College, Pa.). In all cases, a P-value less than 0.05 was considered to be statistically significant.

For the substance “Fortilin: 172 amino acid anti-apoptotic polypeptide (SEQ ID NO:2), overexpressed from expression constructs or used as recombinant/in vitro translated protein”, in the data set with Bax, the “co-immunoprecipitation of Bax with Fortilin in vitro” value is “not”. Further, in the data set on caspase 3-like activity (U2OS cells, 10 μg/mL etoposide, signals every 10 minutes for 2 hours), the “inhibition of caspase-3-like activity, kinetics” value is on record as “significantly inhibited the caspase-3-like activity in U2OS cells at all time points”. The “inhibition of caspase-3-like activity upon etoposide challenge” value in the data set with caspase 3-like activity (U2OS cells, etoposide 10 μg/mL 48 hours, vs empty vector) is “significantly inhibited the caspase-3-like activity in U2OS cells”. The substance further displayed a caspase-3-like activity in the data set with caspase 3-like activity (U2OS stably expressing Fortilin (U2OS.F), absence of etoposide challenge (DMSO)) of 283±22.6 R.F.U./μg protein. Further, the caspase-3-like activity index with caspase 3-like activity (U2OS stably expressing Fortilin (U2OS.F), etoposide 10 μg/mL 48 hours) is 713.9±62.6 R.F.U./μg protein. The figures for the “cytotoxicity index relative to control transfectants” value in the data set on U2OS cells (listed as wild type Fortilin) and in the data set on U2OS cells (listed as wild-type fortilin) were “significantly lower” and “significantly lower than the cytotoxicity index of control cells”, respectively. In the data set on U2OS cells (U2OS stably expressing Fortilin vs empty vector, 5 μg/mL etoposide, 48, 72, 96 hours), the “etoposide-induced cytotoxicity (LDH cytotoxicity index), time course” value is “lesser amounts of etoposide-induced cytotoxicity after incubation periods of 48, 72, and 96 hours; also recorded: significantly less cytotoxicity at various time points after the etoposide challenge”. For the same substance, in the data set on U2OS cells (U2OS stably expressing Fortilin vs empty vector, etoposide 2.5, 5, 10, 20 μg/mL, 48 hours), the “etoposide-induced cytotoxicity (LDH cytotoxicity index), dose response” value is listed as “significantly lesser amounts of etoposide-induced cytotoxicity; also recorded: significantly less cytotoxicity over the wide range of etoposide concentrations”. In addition, the “co-precipitation of fortilin and p53 in vivo” value with p53 is “The presence of immunoprecipitated p53 was necessary and sufficient to co-precipitate fortilin”. Further, in the data set with MCL1, the “co-immunoprecipitation of MCL1 in vivo” value is given as “co-immunoprecipitated MCL1”.
